Assay results published in PMC7820290.

Experiments:
Assay in all cases: co-condensation microscopy
[1] = target: N1-246 (SARS-CoV-2) (UniProt P0DTC9)
[2] = target: N175-364 (SARS-CoV-2) (UniProt P0DTC9)
[3] = target: N175-419 (SARS-CoV-2) (UniProt P0DTC9)
[4] = target: N49-246 (SARS-CoV-2) (UniProt P0DTC9)
[5] = target: SARS-CoV-2 nucleocapsid (N), wild type (SARS-CoV-2) (UniProt P0DTC9)

## GGGAUUAAAGGUUUAUACCUUCCCAGGUAACAAACCAACCAACUUUCGAUCUCUUGUAGAUCUGUUCUCUAAACGAACUUUAAAAUCUGUGUGGCUGUCACUCGGCUGCAUGCUUAGUGCACUCACGCAGUAUAAUUAAUAACUAAUUACUGUCGUUGACAGGACACGAGUAACUCGUCUAUCUUCUGCAGGCUGCUUACGGUUUCGUCCGUGUUGCAGCCGAUCAUCAGCACAUCUAGGUUUCGUCCGGGUGUGACCGAAAGGUAAG [UTR265]
[1]
  binding signal (% fluorescence in condensates): 13
[2]
  binding signal (% fluorescence in condensates): 8.4
[3]
  binding signal (% fluorescence in condensates): 9.3
[4]
  binding signal (% fluorescence in condensates): 18
[5]
  binding signal (% fluorescence in condensates): 35
